System: MS2 coat protein
Assay: apparent KD of MS2 coat protein; higher = weaker reporter binding
Settings: Eterna round: R107
Procedure, shortened: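 Designed RNA switches, transcribed on-chip from Illumina sequencing clusters, were titrated with SNAP-549-labelled MS2 coat protein from 0.7 or 1.5 nM to 3 µM in twofold steps. The solution was 100 mM Tris-HCl pH 7.5, 80 mM KCl, 4 mM MgCl2, with constant ligand or without it. Apparent KD is the median over each design's normalised cluster binding-curve fits.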

[1] = input ligand: theophylline 20 uM
[2] = input ligand: theophylline 2 mM
[3] = input ligand: tryptophan 2.4 mM

| Sequence | apparent KD of MS2 coat protein (input ligand: arginine 13.2 mM) [nM] | apparent KD of MS2 coat protein (input ligand: none) [nM] | apparent KD of MS2 coat protein [1] [nM] | apparent KD of MS2 coat protein [2] [nM] | apparent KD of MS2 coat protein [3] [nM] |
| --- | --- | --- | --- | --- | --- |
| CUAUAAUGAAAACAUUAUAGAGUGGGUGAACGAGGACCGGUACGGCCGCCACUCGGACAUGAGGAUCACCCAUGUCCAUGUGAAA [AstrosExyTryA#24] | 11.2 | 15.6 | 18.9 | 17.7 | 31.9 |
| CUCCUGGGAGCGGCCGCCACUGGAGGCCUUGCGCGACAUGAGGAUCACCCAUGUUGUCCCGGCCUCAGGACCGGGUUCGCGCGAG [Same State - Tryptophan B Attempt #1] | 6.5 | 8.09 | 10.2 | 9.71 | 8.67 |
| CUCUGAGUCCGAAAGGACUCAGAGGCGGAUACCAGCGAGGUCCAUCGCCCUUGGCAGCCGAACAUGAGGAUCACCCAUGUCGGUA [#1 Same State - Theophylline A Attempt #28 (HarryS)] | 9.74 | – | 12.1 | – | 11.2 |
| CUUAUAUAUAGAAGGAGCGACAUGAGGAUCACCCAUGUCUACCACGUCGAAAGACGCUCAUGUCAGGUAGGUCGCUAUAUAUAAG [Astros-Eli-mod3] | 42.5 | 152 | 138 | 172 | 120 |
| GACCGAUUAUAGCGCGAUUGUCUUGUGGAAGGAGCGCAGAGGGCUGCAGGUAGGUCGCCACAUGAGGAUCACCCAUGUCAGGAUA [Ananvediri] | 30.5 | 20.2 | 53.4 | 35.8 | 30.9 |
| GACCUUGCGGGCGCCCGCAAGGUUGCGGAUACCAGCGAGGUCCAUCGCCCUUGGCAGCCGAACAUGAGGAUCACCCAUGUCGGAC [Same State - Theophylline A Attempt #3 (HarryS)] | 10.3 | 11.4 | 18.2 | 15.8 | 11.2 |
| GAGACGUCGGGAAGGAGCGCAUCCAAACCACACAUGAGGAUCACCCAUGUAUAAAUAUGCAUGCAGGUAGGUCGCCCGGUGUCCA [Xegeisge] | 49.9 | 85.7 | 120 | 114 | 86.1 |
| GAGCUGAUGUAGAGAUUUUAUUUCUGAGAUACCAGUACAGAAAUGUACCCUUGGCAGCUCAGCUUUACAUGAGGAUCACCCAUGU [Ex Theophylline A 16] | 16.9 | – | 17.8 | – | 17.6 |
| GAGGACAUGAGGAUCACCCAUGUAAAUGAUACCAGUUGAGAGAGAGGCCCUUGGCAGCGUAAACAUGACAGCGAGCGAGAGUGCG [ss-theoA-0] | 16.3 | 13.1 | 19.2 | 15.3 | 14.6 |
| GAGGAUCAAGUAGAUACCAGCACAUGAGGAUCACCCAUGUAAUGGUGUCCCUCAAGAACGUGCCCUUGGCAGCUACUAUCAAAAU [Enarbeer] | 24.6 | – | 20.5 | – | 14.7 |
| GAUAGUUGAAGGGAUACCAGCCUGGACAUGAGGAUCACCCAUGUAGCGUGUUUGAAACUGGGCCCUUGGCAGCCCAUAUUGUGUA [Same State - Theophylline B / A] | 16.3 | – | 17.6 | – | 15.2 |
| GAUAUAACAAAAGUUGUAUCAGUGGGUGAACGAGGACCGGUACGGCCGCCACUCGGACAUGAGGAUCACCCAUGUCCAUGUGAAA [AstrosExyTryA#18] | 11.6 | 14.7 | 23.1 | 19.8 | 44.3 |
| GAUAUGGAAACAUGUCAGAUCCUUACCGGUCGAGGACCGGUACGGCCGCCACUCGCAAAUAUUGUACAUGAGGAUCACCCAUGUA [Ex Tryptophan A 17] | 13.2 | – | 15.4 | 13.6 | – |
| GAUCUGUCGGGUGAUACCAGCCUCGGCACAUCUCGUGCCGAACAUGAGGAUCACCCAUGUGGCCCUUGGCAGCACAUGACAAAUC [Regebece] | 64 | – | 652 | – | 1050 |
| GAUCUUGCGGGCGCCCGCAAGGUUGCGGAUACCAGCGAGAUUAAUCGCCCUUGGCAGCCGAACAUGAGGAUCACCCAUGUCGGAC [Same State - Theophylline A Attempt #2 (HarryS)] | 8.92 | – | 11.5 | – | 10.5 |
| GAUGAACAUACUGAUACCAGUGUACUGACAUGAGGAUCACCCAUGUUGGGUUUUGUUGUACACCCUUGGCAGCAGAAUGUUUAUC [AstrosExyTheB#7] | 46.2 | – | 66.5 | – | 55.4 |
| GAUGCACAUGAGGAUCACCCAUGUCCUGAUACCAGAACGCGACUUUUCCCUUGGCAGCAGAAUUCACUUUUUUACAUUCAUACUG [theeternabot_sameState_MS2_Theo_A_11] | 22.7 | – | 30.6 | – | 27 |
| GAUUACAUGAGGAUCACCCAUGUAACUGAAGGAGCGGUAAUAAAGCCAGGUAGGUCGCAGAACAACAUGUGGUUCAUCCAUGUAA [#14 Exclusion - Arginine A] | 23.2 | 20.1 | 35 | 26.8 | 21.3 |
| GAUUACAUGAGGAUCACCCAUGUAACUGAAGGAGCGGUGAUAAAGCCAGGUAGGUCGCAGAACGACAUGUGGUUCAUCCAUGUAA [#16 Exclusion - Arginine A] | 33.7 | 36.8 | 43.9 | 48 | 30.3 |

From the supplement of paper PMC9170038
